Reference: publication PMC8100176, “Cryo-EM structure of ABCG5/G8 in complex with modulating antibodies” (Communications Biology, 2021)
Each block holds one binder with its values, some of them ahead of it.

Key:
[1] = biological target: T1, ABCG5/G8 heterodimer (ATP-binding cassette transporters ABCG5 and ABCG8), human, full length (Homo sapiens, UniProt Q9H222;Q9H221); experiment: SPR; Biacore T200, CM5 chip with goat anti-mouse IgG Fc antibody capturing the mouse anti-ABCG5/G8 mAbs (~100 Ru); ABCG5/G8 in DDM micelles, multicycle kinetics, 6 pM to 100 nM, 50 µL/min, 180 s association, 1800 s dissociation (the legend of Fig. 1 says instead that mAb was injected over immobilized ABCG5/G8); conditions: both partners purified
T1 construct: ABCG5, human, full length; followed by a TEV protease cleavage site and a 12 His tag on the C-terminus; ABCG8, human, full length; In DDM micelles for SPR and the ATPase assay; in saposin A-based nanodiscs for cryo-EM; also called ABCG5/ABCG8; source: Pichia pastoris (ATUM-9016 strain), membranes extracted with DDM, purified (HisTrap, Superdex 200)

[2] = biological target: T2, ABCG8 (ATP-binding cassette transporter G8), human, full length, half transporter of the ABCG5/G8 heterodimer (human, UniProt Q9H221); experiment: cryo-EM structure; ternary complex of ABCG5/G8 with Fab 2E10 and Fab 11F4, purified by size exclusion, in saposin A-based nanodiscs; nucleotide-free, inward-facing; 3.3 Å; conditions: both partners purified
T2 construct: ABCG8, human, full length; Same chain as the second chain of m1; written alone for the contacts seen in the structure; First residue seen in the cryo-EM structure is Phe28; source: Pichia pastoris (ATUM-9016 strain), expressed with ABCG5 and purified as the heterodimer (HisTrap, Superdex 200)
T2 sequence (Q9H221 whole entry, one chain of several): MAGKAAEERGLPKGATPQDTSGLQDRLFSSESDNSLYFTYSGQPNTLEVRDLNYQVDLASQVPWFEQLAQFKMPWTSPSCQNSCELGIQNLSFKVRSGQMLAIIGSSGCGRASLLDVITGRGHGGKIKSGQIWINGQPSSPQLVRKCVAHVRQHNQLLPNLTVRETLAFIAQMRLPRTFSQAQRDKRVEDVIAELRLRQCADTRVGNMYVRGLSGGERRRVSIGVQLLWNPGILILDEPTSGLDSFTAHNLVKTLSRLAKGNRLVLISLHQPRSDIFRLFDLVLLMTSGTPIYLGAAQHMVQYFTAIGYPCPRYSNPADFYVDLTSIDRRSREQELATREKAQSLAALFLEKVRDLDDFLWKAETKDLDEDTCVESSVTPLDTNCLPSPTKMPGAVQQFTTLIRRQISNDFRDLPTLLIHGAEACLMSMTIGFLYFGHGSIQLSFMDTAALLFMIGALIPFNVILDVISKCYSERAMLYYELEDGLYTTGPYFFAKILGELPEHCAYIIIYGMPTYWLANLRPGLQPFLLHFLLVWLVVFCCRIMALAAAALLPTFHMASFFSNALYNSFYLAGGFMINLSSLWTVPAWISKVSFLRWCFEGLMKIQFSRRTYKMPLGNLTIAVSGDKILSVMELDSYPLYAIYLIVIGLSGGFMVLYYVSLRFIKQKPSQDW

T1 sequence (Q9H222 whole entry, chain 1 of 2): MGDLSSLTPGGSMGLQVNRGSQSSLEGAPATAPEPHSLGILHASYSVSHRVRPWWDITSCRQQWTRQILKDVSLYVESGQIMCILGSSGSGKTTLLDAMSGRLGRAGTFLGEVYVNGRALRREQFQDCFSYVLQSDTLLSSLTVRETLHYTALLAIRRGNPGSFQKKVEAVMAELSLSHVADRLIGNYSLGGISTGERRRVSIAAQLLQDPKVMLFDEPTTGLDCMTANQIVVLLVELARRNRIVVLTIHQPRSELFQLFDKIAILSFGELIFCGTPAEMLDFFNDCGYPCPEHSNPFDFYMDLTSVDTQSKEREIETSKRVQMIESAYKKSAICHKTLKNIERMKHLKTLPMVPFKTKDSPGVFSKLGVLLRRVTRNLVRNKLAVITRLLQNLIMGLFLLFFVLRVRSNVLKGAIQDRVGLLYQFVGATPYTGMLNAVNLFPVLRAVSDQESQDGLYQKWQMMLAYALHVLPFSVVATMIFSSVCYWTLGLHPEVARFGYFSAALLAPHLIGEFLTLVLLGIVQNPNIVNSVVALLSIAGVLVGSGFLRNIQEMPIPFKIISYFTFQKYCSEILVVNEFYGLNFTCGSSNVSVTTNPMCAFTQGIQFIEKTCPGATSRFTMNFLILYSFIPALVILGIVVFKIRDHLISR
T1 sequence (Q9H221 whole entry, chain 2 of 2): as the sequence (Q9H221 whole entry, one chain of several) above

B1: monoclonal antibody 2E10 against ABCG5/G8 (antibody, V domains shown)
VH: QVHLQQSGAELVRPGTSVKMSCKAAGYTFTYWWIGWLKQRPGHGLEWIGDFFPVSGHTNFNEKFRDKATLTADTSSSTAYMQLNSLTSEDSAIYYCARKQDSSGPLYAMDYWGQGTSVTVSS
VL: DIQMTQSSSYLSVSLGGRVTITCKASDHINNWLAWYQQKPGNAPRLLISAATSLETGVPSRFSGSGSGKDYTLSIISLQTEDVATYYCQQYWSTPFTFGSGTKLEIK
notes: the Fab part of the heavy chain is in PDB 7JR7 (as the heavy chain of m4); as the light chain of m4, in PDB 7JR7; Mouse IgG (captured by goat anti-mouse IgG Fc); also called mAb 2E10; source: produced at the antibody core facility at Oregon Health Science University
Kd [1]: 0.11 nM

B4: Fab fragment of monoclonal antibody 11F4 (Fab, V domains shown)
VH: DVQLQESGPGLVKPSQSLSLTCTITGYSITSDYAWNWIRQFPGNKLEWMGYISYSGTTYYNPSLKSRFSITRDTSRNQFFLQFNSVTTEDTGTYFCARMITTVYYFDYWGQGTTLTVSS
VL: QIVLTQSPTIMSASLGERVTMTCTASSSASSSYLHWYQQKPGSSPKLWIYSTSNLASGVPARFSGSGSGTSYSLTISNMEAEDAATYYCHQHHRSPPTFGAGTKLELK
notes: also called Fab 11F4; Fab11F4; source: papain cleavage of mAb 11F4, purified by gel filtration chromatography
binding result [2]: binds

Continued, values first:

binding result [2]: binds
B2: Fab fragment of monoclonal antibody 2E10 (Fab, V domains shown)
VH: QVHLQQSGAELVRPGTSVKMSCKAAGYTFTYWWIGWLKQRPGHGLEWIGDFFPVSGHTNFNEKFRDKATLTADTSSSTAYMQLNSLTSEDSAIYYCARKQDSSGPLYAMDYWGQGTSVTVSS
VL: DIQMTQSSSYLSVSLGGRVTITCKASDHINNWLAWYQQKPGNAPRLLISAATSLETGVPSRFSGSGSGKDYTLSIISLQTEDVATYYCQQYWSTPFTFGSGTKLEIK
notes: also called Fab 2E10; source: papain cleavage of mAb 2E10, purified by gel filtration chromatography

Kd [1]: 0.12 nM
B3: monoclonal antibody 11F4 against ABCG5/G8 (antibody, V domains shown)
VH: DVQLQESGPGLVKPSQSLSLTCTITGYSITSDYAWNWIRQFPGNKLEWMGYISYSGTTYYNPSLKSRFSITRDTSRNQFFLQFNSVTTEDTGTYFCARMITTVYYFDYWGQGTTLTVSS
VL: QIVLTQSPTIMSASLGERVTMTCTASSSASSSYLHWYQQKPGSSPKLWIYSTSNLASGVPARFSGSGSGTSYSLTISNMEAEDAATYYCHQHHRSPPTFGAGTKLELK
notes: the Fab part of the heavy chain is in PDB 7JR7 (as the heavy chain of m5); as the light chain of m5, in PDB 7JR7; Mouse IgG (captured by goat anti-mouse IgG Fc); also called mAb 11F4; source: produced at the antibody core facility at Oregon Health Science University
